Patent publication US20240425587A1 (Alector, published 2024)

B1: B1 (antibody, V domains shown)
VH: DVKLVESGGGLVKLGGSLKLSCAASGFTFSSYYMSWVRQTPEKRLEWVAAINSNGDRSYYPDTVKGRFTISRDNAKNTLYLQMSSLKSEDTAFYYCASHGNYYGSPWFAYWGQGTLVTVSA
VL: ETTVTQSPASLSVATGEKVTIRCKTSTDIDDDMNWYQQKPGEPPKLLISEGNTLRPGVPSRFSSSGYGTDFVFTIENTLSEDVADYYCLQNDHMPLTFGGGTKLEIK
notes: B-cell cloning campaign (mice)
B2: E20 (antibody, V domains shown)
VH: QIQLVQSGPELKKPGETVKISCKASGYTFTTYGMSWVKQAPGKGLKWMGWINTYSGVPTYADDFKGRFAFSLETSASTAYLQINNLKNEDTATYFCARYDGYLDYWGQGTTLTVSS
VL: DIVLTQSPASLAVSLGQRATISCKASQSVDYDGDSYMNWYQQKPGQPPKLLIYAASNLESGIPARFSGSGSGTDFTLNIHPVEEEDAATYYCQQSNEDLTFGSGTKLEIK
notes: as for B1
B3: D5 (antibody, V domains shown)
VH: EVKLDETGGGLVQPGRPMKLSCVASGFTFSDYWMNWVRQSPEKGLEWVAQIRNKLYNYETYYSDSVKGRFTISRDDSKSSVYLQMNNLRAEDMGIYYCTVGLAMDYWGQGTSVTVSS
VL: DIQMTQSSSSFSVSLGDRVTITCKASEDIYNRLAWYQQKPGNAPRLLISGATSLETGVPSRFSGSGSGKEYTLNITSLQTEDVATYYCQQYWSTPTFGGGTKLEIK
notes: second hybridoma campaign
B4: D3 (antibody, V domains shown)
VH: QVQLQQPGADLVKPGASVKVSCKTSGYSFTSYWIHWVKQRPGQGLEWIGRVHPSDSDTDYSQKFKGKATLTVDDSSSTVYMQLTNLTSEDSAVYYCAIEWGYLFDYWGQGTTLSVSS
VL: DIVLTQSPISLAVSLGQRATISCWASQSVSTSSYSYVHWYQQKPGQPPKLLIKYASNLDSGVPARFSGSGSGTDFTLNIHPVDEEDTATYYCHHNWEIPYTFGGGTKLEIK
notes: second hybridoma campaign
B5: D1 (antibody, V domains shown)
VH: QVQLQQSGVELARPGASVKLSCKASGYNFTSYGINWVKQRTGQGLEWIGKSYPTSGNNYYNEKFKGKATVTADKSSSTAYMELRSLTSEDSAVYFCGVWYGSLFAHWGQGTLVTVTA
VL: DIVMTQSQKFMSTSVGDRVRVTCKASQNVGFNVAWYQQKPGQSPKVLIYSASYRYSGVPDRFTGSGSGTDFTLTITNVQSEDLAEYFCHQYNNFPFTFGSGTKLEIK
notes: second hybridoma campaign
B6: D4 (antibody, V domains shown)
VH: QVQLQQSGADLARPGASVKLSCKASGYTFTSYGIAWMKQRTGQGLEWIGEIYPRSGNPYYNDRFKGKATLTADRSSNTTYMELRSLTSEDSAVYFCARWVGGIIDYWGQGTSVTVSS
VL: DIVMTQSQKFMSTSIGDRVSVTCKASQNVGFNVAWYQQKPGQSPKPLIYSASYRYSGVPDRFTGSESGTEFTLIISNVQSEDLAEYFCQQYDSYPFTFGSGTNLEIK
notes: second hybridoma campaign
B7: D2 (antibody, V domains shown)
VH: QIQLGQSGPELKRPRETVKISCKASGYTFTTYGMSWVKQAPGKGLRWMGWINTHSGVPAYADDFKGRFAFSLETSANTAFLQINNLENEDTATYFCAKDYNWGMDYWGQGTSVIVSS
VL: QLVLTQSSSASFSLGASAKLTCTLSSQHSTYTIEWYQQQPLKPPKYVMEVKKDGSHSTGDGIPDRFSGSSSGADRYLSISNIQPEDEAIYICGVGDSIKEQFVYVFGGGTKVTVL
notes: second hybridoma campaign
B8: D6 (antibody, V domains shown)
VH: EVQLQQSGPELVKPGASVKMSCKASGYTFTDYYMDWVKQSHGESFEWIGRVNPYTGDSSYNQKFKGKATLTVDKSSNTAYLEFNSLTSEGSAVYYCARSDGYHYKYAMDYWGQGTSVTVSS
VL: DVVMTQTPLSLPVSLGDQASISCRSSQSLVHSTGNTYLHWYLQKPGQSPNLLIYKISNRFSGVPDRFSGSGSGTDFTLKISRVEAEDLGVYFCSQSTHVPYTFGGGTKLEIK
notes: second hybridoma campaign; same VH/VL as D8
B9: D8 (antibody, V domains shown)
VH: EVQLQQSGPELVKPGASVKMSCKASGYTFTDYYMDWVKQSHGESFEWIGRVNPYTGDSSYNQKFKGKATLTVDKSSNTAYLEFNSLTSEGSAVYYCARSDGYHYKYAMDYWGQGTSVTVSS
VL: DVVMTQTPLSLPVSLGDQASISCRSSQSLVHSTGNTYLHWYLQKPGQSPNLLIYKISNRFSGVPDRFSGSGSGTDFTLKISRVEAEDLGVYFCSQSTHVPYTFGGGTKLEIK
notes: second hybridoma campaign; same VH/VL as D6
B10: A9 (antibody, V domains shown)
VH: QVQLVQSGAEVKKPGSSVKVSCKASGYTFTDYAISWVRQAPGQGLEWMGGITPVFGTPSYAQKFQGRVTITADESTSTAYMELSSLRSEDTAVYYCARGWELRRDPFDYWGQGTLVTVSS
VL: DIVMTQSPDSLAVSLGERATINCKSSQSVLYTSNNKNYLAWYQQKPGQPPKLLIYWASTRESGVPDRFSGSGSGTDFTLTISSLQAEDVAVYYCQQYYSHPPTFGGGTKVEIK
notes: phage campaign
B11: A10 (antibody, V domains shown)
VH: QVQLVQSGAEVKKPGASVKVSCKASGYTFTDYYIHWVRQAPGQGLEWMGWMNPNSGNTGYAQKFQGRVTMTRDTSTSTVYMELSSLRSEDTAVYYCAREGSSGWYVDYWGQGTLVTVSS
VL: DIQMTQSPSSLSASVGDRVTITCQASQDISQFLNWYQQKPGKAPKLLIYDAYSLQSGVPSRFSGSGSGTDFTLTISSLQPEDFATYYCQQANSFPLTFGQGTKVEIK
notes: phage campaign
B12: D7 (antibody, V domains shown)
VH: QVQLKESGPGLVAPSQSLSITCTVSGFSLTSYAISWVRQPPGKGLEWLGIIWTGGDTNYNSGLKSRLSITKDNSKSQVFLKMNSLQTDDTSRYYCARNSLFYGITPYYFDYWGQGTTLTVSS
VL: DIVLTQSPATLSVTPGDSVSLSCRASQSIRNDLHWYQQKSHESPRLLIKYASQSISGIPSRFSGSGSGTDFTLTINVLETEDFGMYFCQQSNGWPLTFGAGTKLELK
notes: second hybridoma campaign

Columns and labels:
[1] = target: T1, murine PILRB, ectopically expressed on 293 cells (murine, UniProt Q2YFS2 29-224); experiment: flow cytometry, 293 cells expressing target
T1 construct: whole, on cells; also called mB
T1 sequence (Q2YFS2 29-224): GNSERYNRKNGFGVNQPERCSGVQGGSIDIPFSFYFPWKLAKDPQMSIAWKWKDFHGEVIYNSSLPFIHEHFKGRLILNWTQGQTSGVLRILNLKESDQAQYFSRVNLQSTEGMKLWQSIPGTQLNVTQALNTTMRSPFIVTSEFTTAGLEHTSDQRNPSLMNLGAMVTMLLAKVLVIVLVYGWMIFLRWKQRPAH
Protocol: (§1) Briefly, conditioned media containing antibodies were incubated with 293 cells for 30 min at 4° C., washed twice, and then detected with anti-mouse IgG Alexa 647.

[2] = target: cynomolgus PILRA, ectopically expressed on 293 cells (cynomolgus monkey); experiment: flow cytometry, 293 cells expressing target
cynomolgus PILRA, ectopically expressed on 293 cells (cynomolgus monkey), sequence (chain, as listed by the source): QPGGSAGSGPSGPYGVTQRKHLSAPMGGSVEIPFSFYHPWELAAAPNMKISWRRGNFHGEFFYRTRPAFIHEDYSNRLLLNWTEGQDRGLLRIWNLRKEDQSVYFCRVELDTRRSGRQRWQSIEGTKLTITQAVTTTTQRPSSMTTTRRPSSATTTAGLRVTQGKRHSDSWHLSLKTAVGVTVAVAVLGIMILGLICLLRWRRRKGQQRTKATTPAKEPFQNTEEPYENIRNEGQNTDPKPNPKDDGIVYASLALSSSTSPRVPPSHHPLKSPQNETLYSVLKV
Protocol: as §1

[3] = target: T2, human PILRA, G78 variant, ectopically expressed on 293 cells (human, UniProt Q9UKJ1 20-303); experiment: flow cytometry, 293 cells expressing target
T2 construct: the cells are labelled G78; also called hA G78 OE; hA
T2 sequence (Q9UKJ1 other isoform, or with tags, fused parts or gaps mutant): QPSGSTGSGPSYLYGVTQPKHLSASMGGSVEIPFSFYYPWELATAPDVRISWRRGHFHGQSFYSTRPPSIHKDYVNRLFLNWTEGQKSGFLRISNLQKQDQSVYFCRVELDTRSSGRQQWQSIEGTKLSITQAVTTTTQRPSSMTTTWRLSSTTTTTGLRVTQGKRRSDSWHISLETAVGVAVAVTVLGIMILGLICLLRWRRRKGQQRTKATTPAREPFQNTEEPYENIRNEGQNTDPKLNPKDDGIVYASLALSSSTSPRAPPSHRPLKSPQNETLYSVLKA
Protocol: as §1

[4] = target: T3, murine PILRA, ectopically expressed on 293 cells (murine, UniProt Q2YFS3 32-302); experiment: flow cytometry, 293 cells expressing target
T3 construct: also called mA
T3 sequence (Q2YFS3 32-302): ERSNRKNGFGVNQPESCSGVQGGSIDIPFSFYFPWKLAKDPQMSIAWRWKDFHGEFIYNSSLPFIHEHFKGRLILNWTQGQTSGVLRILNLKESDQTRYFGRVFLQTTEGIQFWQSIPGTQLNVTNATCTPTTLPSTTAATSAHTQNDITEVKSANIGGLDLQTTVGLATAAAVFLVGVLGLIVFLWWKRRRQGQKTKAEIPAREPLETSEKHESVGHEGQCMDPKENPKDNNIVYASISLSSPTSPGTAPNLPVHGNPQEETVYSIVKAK
Protocol: as §1

[5] = target: T4, human PILRB, ectopically expressed on 293 cells (human, UniProt Q9UKJ0 20-227); experiment: flow cytometry, 293 cells expressing target
T4 construct: also called hB
T4 sequence (Q9UKJ0 20-227): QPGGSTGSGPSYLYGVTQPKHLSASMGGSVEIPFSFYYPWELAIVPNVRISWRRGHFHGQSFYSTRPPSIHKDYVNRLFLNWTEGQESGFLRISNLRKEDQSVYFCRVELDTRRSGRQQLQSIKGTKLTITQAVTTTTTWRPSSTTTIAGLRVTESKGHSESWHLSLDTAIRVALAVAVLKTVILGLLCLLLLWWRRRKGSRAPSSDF
Protocol: as §1

[6] = target: T5, PILRA Fc (soluble human PILRA) (human, UniProt Q9UKJ1 20-197, limits assumed); experiment: flow cytometry; blocking of PILRA Fc binding to human CD3+ T cells (Donor 1019)
T5 construct: also called soluble PILRA; not shown: Fc part, detected with anti-human IgG
T5 sequence (Q9UKJ1 20-197 limits assumed): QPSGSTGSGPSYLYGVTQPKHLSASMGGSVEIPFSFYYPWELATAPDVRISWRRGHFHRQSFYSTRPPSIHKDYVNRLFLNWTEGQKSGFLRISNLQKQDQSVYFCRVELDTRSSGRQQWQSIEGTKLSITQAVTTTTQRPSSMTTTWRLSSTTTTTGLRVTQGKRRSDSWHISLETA
Protocol: The ability of conditioned media samples containing antibodies to inhibit the binding of PILRA Fc to human CD3+ T cells was assessed. Briefly, conditioned media samples containing antibodies were incubated with 1.25 ug/ml PILRA Fc for 30 min at 4° C. and then added to human T cells. After 30 minutes incubation at 4° C., cells were washed, and bound PILRA Fc was detected with anti-human IgG Alexa 647. Cells were analyzed by flow cytometry on FACS Canto II, and for all cell lines, the amount of PILRA Fc binding (MIFI) and the percentage of PILRA Fc binding in the presence of conditioned media relative to PILRA Fc binding alone was calculated. Several antibodies inhibited binding of PILRA Fc to human T cells, and a few antibodies enhanced PILRA-Fc binding to T cells. Antibodies that show enhancement in this assay may block cis inhibition to promote trans interactions or may allosterically activate to enhance trans interactions without blocking cis.

[7] = target: T6, human PILRA, c-term His-Avi tag (human, UniProt Q9UKJ1 20-197, limits assumed); experiment: SPR (Biacore), antibody captured, PILRA as analyte
T6 construct: not shown: C-terminal His-Avi tag
T6 sequence (Q9UKJ1 20-197 limits assumed): as above
Protocol: Experiments were performed to determine the kinetics of anti-PILRA antibody binding to human […]. The assay is depicted in FIG. 6. A rabbit anti-PILRA was used as a positive control, and H1 LALAPS was used as a negative control. Human PILRA (human PILRA, c-term His-Avi tag, 0.68 mg/mi) was used as the antigen. The running buffer was HBSTE/0.5% BSA, pH 7.4, and the regeneration solution was 10 mM glycine-HCl (pH 2.1). In the assay, antibodies were captured at 10 μg/ml by immobilized anti-huFc or anti-msFc on a Biacore CM5 chip, and human PILRA flowed at 33, 100, and 300 nM. The surface was regenerated after each analyte, and all curves were double-referenced with buffer injections.

[8] = target: T2, human PILRA, G78 variant, ectopically …; experiment: flow cytometry; blocking of NPDC1-hIgG1 binding to 293 cells expressing human PILRA G78

| Binder | binding result [1] | EC50 [2] [mg/L] | EC50 [3] [mg/L] | binding result [4] | binding result [5] | IC50 [6] [mg/L] | binding result [2] | Kd [7] [µM] | koff [7] [s⁻¹] | kon [7] [M⁻¹ s⁻¹] | t½ [7] [min] | EC50 [5] [mg/L] | IC50 [8] [mg/L] |
| --- | --- | --- | --- | --- | --- | --- | --- | --- | --- | --- | --- | --- | --- |
| B1 | no binding | 2 | 0.96 | no binding | no binding | 2.2 | – | – | – | – | – | – | – |
| B2 | no binding | – | 33.5 | no binding | no binding | 5.1 | no binding | – | – | – | – | – | – |
| B3 | no binding | – | 1 | no binding | no binding | 4.56 | no binding | 0.0368 | 0.0014 | 37000 | 8.5 | – | – |
| B4 | no binding | – | 0.2 | no binding | no binding | 2.9 | no binding | – | – | – | – | – | – |
| B5 | no binding | – | 0.3 | no binding | no binding | 1.6 | no binding | – | – | – | – | – | – |
| B6 | no binding | – | 0.4 | no binding | no binding | 3.77 | no binding | – | – | – | – | – | – |
| B7 | no binding | – | 3.4 | no binding | no binding | 3.3 | no binding | < 0.0013 | < 0.0001 | 75000 | – | – | – |
| B8 | no binding | 0.05 | 0.12 | no binding | – | 3.13 | – | – | – | – | – | 0.47 | – |
| B9 | no binding | 0.1 | 0.1 | no binding | – | 2 | – | – | – | – | – | 0.35 | – |
| B10 | no binding | 14.6 | 0.8 | no binding | no binding | – | – | 0.15 | 0.011 | 70000 | – | – | 0.6 |
| B11 | no binding | 17.3 | 1.1 | no binding | no binding | – | – | 0.0429 | 0.0054 | 130000 | – | – | 0.48 |
| B12 | no binding | 1 | 0.3 | no binding | – | 5.75 | – | – | – | – | – | 21.2 | – |
